4 molecules from patent US20180148474A1 (KOREA UNIVERSITY RESEARCH AND BUSINESS FOUNDATION SEJONG …, published 2018) can be followed below.

The target in this assay is thymic stromal lymphopoietin (TSLP). As to the kind of experiment: cell-based or functional assay.
Chain of thymic stromal lymphopoietin (TSLP) (Q969D9 29-159): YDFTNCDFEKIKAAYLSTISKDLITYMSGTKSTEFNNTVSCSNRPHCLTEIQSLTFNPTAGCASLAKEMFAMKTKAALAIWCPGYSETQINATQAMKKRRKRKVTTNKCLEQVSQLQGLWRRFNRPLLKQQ
On to Ac-ARQRASA-OH [Compound 5 (peptide derivative of Formula 5): CH3CONH-Ala-Arg-Gln-Arg-Ala-Ser-Ala-COOH], for which the “Degrees of phosphorylation of STAT5 molecules in cells (%), 0.3 µM peptide mixed with TSLP 100 ng/mL, HMC-1 cells, flow cytometry; control with TSLP alone = 100%” value was determined as 86.1%; the “Degrees of phosphorylation of STAT5 molecules in cells (%), 3 µM peptide mixed with TSLP 100 ng/mL, HMC-1 cells, flow cytometry; control with TSLP alone = 100%” value was determined as 84.6%; the “Degrees of phosphorylation of STAT5 molecules in cells (%), 30 µM peptide mixed with TSLP 100 ng/mL, HMC-1 cells, flow cytometry; control with TSLP alone = 100%” value was found to be 77.1%.
Taken in the same sequence, the figures for H-RQRASA-OH [Compound 2 (peptide derivative of Formula 2): H2N-Arg-Gln-Arg-Ala-Ser-Ala-COOH] were 84.4%, 77.9% and 69.8%.
Taken in the same sequence, the figures for H-ARQRASA-OH [Compound 4 (peptide derivative of Formula 4): H2N-Ala-Arg-Gln-Arg-Ala-Ser-Ala-COOH] were 71%, 68.3% and 70.9%.
For the molecule Ac-RQRASA-OH [Compound 3 (peptide derivative of Formula 3): CH3CONH-Arg-Gln-Arg-Ala-Ser-Ala-COOH], the “Degrees of phosphorylation of STAT5 molecules in cells (%), 0.3 µM peptide mixed with TSLP 100 ng/mL, HMC-1 cells, flow cytometry; control with TSLP alone = 100%” value came out at 73.5%; the “Degrees of phosphorylation of STAT5 molecules in cells (%), 3 µM peptide mixed with TSLP 100 ng/mL, HMC-1 cells, flow cytometry; control with TSLP alone = 100%” value is 67.8%; the “Degrees of phosphorylation of STAT5 molecules in cells (%), 30 µM peptide mixed with TSLP 100 ng/mL, HMC-1 cells, flow cytometry; control with TSLP alone = 100%” value stood at 66.9%.
